Data published in patent US20110151454.
Positions count from the first letter of the chain named. In names and notes the source's numbering stands.

Assays:
[1] = target: HA-tagged p27 phosphorylated at T187 by CDK2/cyclinA, P46527
[2] = target: HA-SKP2 phosphorylated in vitro by AKT (32P-SKP2), Q13309
HA-SKP2 phosphorylated in vitro by AKT (32P-SKP2), Q13309, sequence (Q13309 whole entry, looked up): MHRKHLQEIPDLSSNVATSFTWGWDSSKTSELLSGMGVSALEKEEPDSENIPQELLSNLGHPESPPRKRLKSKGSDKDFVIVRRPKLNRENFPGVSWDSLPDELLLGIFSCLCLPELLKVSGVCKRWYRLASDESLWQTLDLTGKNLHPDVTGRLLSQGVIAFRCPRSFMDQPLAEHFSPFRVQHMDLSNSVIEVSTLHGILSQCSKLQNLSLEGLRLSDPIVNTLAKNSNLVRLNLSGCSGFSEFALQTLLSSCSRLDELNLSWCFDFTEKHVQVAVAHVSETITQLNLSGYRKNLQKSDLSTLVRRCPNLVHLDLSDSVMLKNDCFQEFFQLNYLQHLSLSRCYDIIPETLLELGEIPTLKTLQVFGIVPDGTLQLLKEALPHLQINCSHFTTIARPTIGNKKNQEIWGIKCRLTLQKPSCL

HA-tagged p27 phosphorylated at T187 by CDK2/cyclinA, P46527, sequence (P46527 whole entry, looked up): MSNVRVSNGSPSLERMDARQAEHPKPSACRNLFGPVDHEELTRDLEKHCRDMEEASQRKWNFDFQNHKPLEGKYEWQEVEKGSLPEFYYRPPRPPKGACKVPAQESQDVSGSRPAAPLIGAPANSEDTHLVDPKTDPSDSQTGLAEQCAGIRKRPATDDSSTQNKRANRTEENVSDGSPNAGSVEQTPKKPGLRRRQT

B1: gst-PPM1H (protein)
chain: MLTRVKSAVANFMGGIMAGSSGSEHGGGSCGGSDLPLRFPYGRPEFLGLSQDEVECSADHIARPILILKETRRLPWATGYAEVINAGKSTHNEDQASCEVLTVKKKAGAVTSTPNRNSSKRRSSLPNGEGLQLKENSESEGVSCHYWSLFDGHAGSGAAVVASRLLQHHITEQLQDIVDILKNSAVLPPTCLGEEPENTPANSRTLTRAASLRGGVGAPGSPSTPPTRFFTEKKIPHECLVIGALESAFKEMDLQIERERSSYNISGGCTALIVICLLGKLYVANAGDSRAIIIRNGEIIPMSSEFTPETERQRLQYLAFMQPHLLGNEFTHLEFPRRVQRKELGKKMLYRDFNMTGWAYKTIEDEDLKFPLIYGEGKKARVMATIGVTRGLGDHDLKVHDSNIYIKPFLSSAPEVRIYDLSKYDHGSDDVLILATDGLWDVLSNEEVAEAITQFLPNCDPDDPHRYTLAAQDLVMRARGVLKDRGWRISNDRLGSGDDISVYVIPLIHGNKLS
For B1, which “dephosphorylation of p27 at S10 (phosphatase reaction, Western blot)” value (shortened to “dephosphorylation of p27 at S10”) [1] is on record?
The value was “Neither enzyme exhibited activity at S10”.

What about the “dephosphorylation of p27 at T187 (phosphatase reaction, Western blot)” value (shortened to “dephosphorylation of p27 at T187”) [1] of the same protein?
The value was “only PPM1H was effective at dephosphorylating p27 at T187”.

B2: flag-PPM1H (protein)
chain: B1 chain
Which “phosphate release from synthetic phospho-peptide (Pi ColorLock Gold assay)” value (from here on “phosphate release”) (p27 T187 phospho-peptide) does the source give for B2 here?
Its value is “Liberation of phosphate was observed with the p27 peptides, most notably with the T187 peptide”.

What about the “phosphate release” value (SKP2 S64 phospho-peptide) of the same protein?
Its value is “No evidence for PPM1H mediated dephosphorylation of the SKP2 phospho-peptides was observed”.

And the “dephosphorylation of p27 at S10” value [1]?
The value was “PPM1H exhibited no activity at the S10 site in this assay”.

What about the “dephosphorylation of p27 at T187” value [1] of the same protein?
Its value is “Wildtype PPM1H but not PPM1H-H153L dephosphorylated p27 at T187”.

And the “phosphate release” value (SKP2 S75 phospho-peptide)?
Its value is “No evidence for PPM1H mediated dephosphorylation of the SKP2 phospho-peptides was observed”.

What about the “phosphate release” value (p27 T157 phospho-peptide) of the same protein?
The value was “Liberation of phosphate was observed with the p27 peptides, most notably with the T187 peptide”.

And the “removal of 32P from AKT-phosphorylated SKP2” value [2]?
Its value is “PPM1H lacked activity”.

What about the “phosphate release” value (p27 S10 phospho-peptide) of the same protein?
Its value is “Liberation of phosphate was observed with the p27 peptides, most notably with the T187 peptide”.

And the “phosphate release” value (SKP2 S72 phospho-peptide)?
Its value is “No evidence for PPM1H mediated dephosphorylation of the SKP2 phospho-peptides was observed”.

B3: flag-PPM1H-H153L (protein)
chain: B1 chain with H153L
Which “dephosphorylation of p27 at T187” value [1] does the source give for B3 here?
Its value is “Wildtype PPM1H but not PPM1H-H153L dephosphorylated p27 at T187”.

B4: λ-phosphatase (protein)
chain: MRYYEKIDGSKYRNIWVVGDLHGCYTNLMNKLDTIGFDNKKDLLISVGDLVDRGAENVECLELITFPWFRAVRGNHEQMMIDGLSERGNVNHWLLNGGGWFFNLDYDKEILAKALAHKADELPLIIELVSKDKKYVICHADYPFDEYEFGKPVDHQQVIWNRERISNSQNGIVKEIKGADTFIFGHTPAVKPLKFANQMYIDTGAVFCGNLTLIQVQGEGA
B4 was tested. Which “removal of 32P from AKT-phosphorylated SKP2” value [2] did it give?
The value was “γ-phosphatase was able to dephosphorylate SKP2”.

B5: gst-PPM1J (protein)
chain: MLNRVRSAVAHLVSSGGAPPPRPKSPDLPNAASAPPAAAPEAPRSPPAKAGSGSATPAKAVEARASFSRPTFLQLSPGGLRRADDHAGRAVQSPPDTGRRLPWSTGYAEVINAGKSRHNEDQACCEVVYVEGRRSVTGVPREPSRGQGLCFYYWGLFDGHAGGGAAEMASRLLHRHIREQLKDLVEILQDPSPPPLCLPTTPGTPDSSDPSHLLGPQSCWSSQKEVSHESLVVGAVENAFQLMDEQMARERRGHQVEGGCCALVVIYLLGKVYVANAGDSRAIIVRNGEIIPMSREFTPETERQRLQLLGFLKPELLGSEFTHLEFPRRVLPKELGQRMLYRDQNMTGWAYKKIELEDLRFPLVCGEGKKARVMATIGVTRGLGDHSLKVCSSTLPIKPFLSCFPEVRVYDLTQYEHCPDDVLVLGTDGLWDVTTDCEVAATVDRVLSAYEPNDHSRYTALAQALVLGARGTPRDRGWRLPNNKLGSGDDISVFVIPLGGPGSYS
How did the “dephosphorylation of p27 at S10” value [1] turn out when B5 was run?
The value was “Neither enzyme exhibited activity at S10”.

And the “dephosphorylation of p27 at T187” value [1]?
Its value is “only PPM1H was effective at dephosphorylating p27 at T187”.
